Experimental data from publication PMC9537594.
pKd: −log10 of the molar value. Where two headings read alike, the source gives them in different places.

Key:
[1] = biological target: WT CA nanotubes (pre-formed tubular assemblies of wild-type HIV-1 CA, hexameric lattices) (HIV-1); assay: co-sedimentation; recombinant GST proteins added to pre-formed WT CA nanotubes, 30 min at 4 °C, 21,000 g for 5 min, pellets washed three times; SDS-PAGE or immunoblot; details: scale: GST-CPSF6(LCR-FG-LCR) molecules per CA hexamer
[2] = biological target: isolated native HIV-1 cores (HIV-1); assay: pull-down
[3] = biological target: isolated native HIV-1 cores (HIV-1); assay: pull-down; remark: listed apart in the source
[4] = biological target: Cross-linked His-CAhex: disulfide-stabilized hexamer of 6-His-CA(A14C/E45C/W184A/M185A) (HIV-1); assay: SPR; Reichert 4-SPR; cross-linked His-CAhex immobilised on an NTA chip via the C-terminal His-tag; peptides 3.9 μM to 2 mM; 0.01 M HEPES pH 7.4, 0.15 M NaCl, 0.05% v/v Surfactant P20; simple kinetic model

## GST-CPSF6_(261-358)(LCR-FG-LCR) (from UniProt Q16630-2 261-358) (domain or fragment)
[1]
  stoichiometry N: 2.4

## GST-CPSF6261-358(LCR-FG-LCR) (domain or fragment)
[2]
  pKd: 6.05
[3]
  pKd: 6.09

## NUP153_(1409-1423) 15-mer FG peptide (from UniProt P49790 1409-1423)
[4]
  pKd: 3.88
